Laboratory results published in patent US20220040319A1 (Regeneron, published 2022).

Columns and labels:
human MET on cells [1] = target: T1, human MET on cells (human, UniProt P08581 25-1390); assay: cell-based or functional assay
human MET on cells [2] = target: T1, human MET on cells; assay: cell-based or functional assay; remark: listed apart in the source
[3] = target: T2, hMET.mFc (dimeric human MET) (human, UniProt P08581 27-307); assay: SPR 37C, antibody captured
T2 construct: soluble dimeric MET protein
T2 sequence (P08581 other isoform, or with tags, fused parts or gaps limits assumed, chain 1 of 2): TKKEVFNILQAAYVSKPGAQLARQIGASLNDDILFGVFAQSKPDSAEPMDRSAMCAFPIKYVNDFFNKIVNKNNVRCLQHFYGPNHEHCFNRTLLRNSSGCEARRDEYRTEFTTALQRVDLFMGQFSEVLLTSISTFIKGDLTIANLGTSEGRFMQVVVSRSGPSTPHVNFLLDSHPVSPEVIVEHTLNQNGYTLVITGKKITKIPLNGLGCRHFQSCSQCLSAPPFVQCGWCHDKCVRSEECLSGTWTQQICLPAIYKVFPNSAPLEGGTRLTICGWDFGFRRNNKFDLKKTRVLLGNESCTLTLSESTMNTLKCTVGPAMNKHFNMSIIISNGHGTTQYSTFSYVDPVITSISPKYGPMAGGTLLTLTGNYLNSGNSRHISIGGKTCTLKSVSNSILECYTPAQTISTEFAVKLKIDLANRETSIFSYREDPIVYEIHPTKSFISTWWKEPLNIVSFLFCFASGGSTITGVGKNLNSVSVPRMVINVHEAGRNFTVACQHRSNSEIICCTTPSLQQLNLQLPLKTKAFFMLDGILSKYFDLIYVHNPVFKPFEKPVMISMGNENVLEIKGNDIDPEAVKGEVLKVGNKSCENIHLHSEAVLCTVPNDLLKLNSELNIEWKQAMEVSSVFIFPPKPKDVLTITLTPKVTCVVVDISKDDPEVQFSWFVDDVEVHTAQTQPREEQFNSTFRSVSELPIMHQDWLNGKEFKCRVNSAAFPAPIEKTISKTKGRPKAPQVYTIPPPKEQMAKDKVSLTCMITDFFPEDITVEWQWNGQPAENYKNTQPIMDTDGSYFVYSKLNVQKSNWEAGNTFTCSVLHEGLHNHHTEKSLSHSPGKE
T2 sequence (P08581 27-307 limits assumed, chain 2 of 2): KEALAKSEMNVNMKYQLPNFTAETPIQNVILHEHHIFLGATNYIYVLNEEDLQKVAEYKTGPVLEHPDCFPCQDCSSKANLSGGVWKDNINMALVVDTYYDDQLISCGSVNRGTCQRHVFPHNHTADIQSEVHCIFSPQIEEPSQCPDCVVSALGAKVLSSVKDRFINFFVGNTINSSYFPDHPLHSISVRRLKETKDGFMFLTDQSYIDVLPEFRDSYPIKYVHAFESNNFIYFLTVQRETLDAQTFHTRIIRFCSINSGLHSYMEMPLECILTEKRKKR
Method: (§1) The anti-Met antibodies tested in this example were bivalent monospecific binders of MET.
(§2) Kinetic association (kₐ) and dissociation (kd) rate constants were determined by fitting the real-time sensorgrams to a 1:1 binding model using Scrubber 2.0c curve fitting software. Binding dissociation equilibrium constant (KD) and dissociative half-life (t1/2) were calculated from the kinetic rate constants as: […]

[4] = target: T3, hMet.mmh (human MET extracellular domain with C-terminal myc-myc-hexahistidine tag) (human, UniProt P08581 309-914; P08581 27-307); assay: SPR 37C, antibody captured
T3 construct: soluble monomeric MET; also called monomeric human MET
T3 sequence (P08581 other isoform, or with tags, fused parts or gaps limits assumed, chain 1 of 2): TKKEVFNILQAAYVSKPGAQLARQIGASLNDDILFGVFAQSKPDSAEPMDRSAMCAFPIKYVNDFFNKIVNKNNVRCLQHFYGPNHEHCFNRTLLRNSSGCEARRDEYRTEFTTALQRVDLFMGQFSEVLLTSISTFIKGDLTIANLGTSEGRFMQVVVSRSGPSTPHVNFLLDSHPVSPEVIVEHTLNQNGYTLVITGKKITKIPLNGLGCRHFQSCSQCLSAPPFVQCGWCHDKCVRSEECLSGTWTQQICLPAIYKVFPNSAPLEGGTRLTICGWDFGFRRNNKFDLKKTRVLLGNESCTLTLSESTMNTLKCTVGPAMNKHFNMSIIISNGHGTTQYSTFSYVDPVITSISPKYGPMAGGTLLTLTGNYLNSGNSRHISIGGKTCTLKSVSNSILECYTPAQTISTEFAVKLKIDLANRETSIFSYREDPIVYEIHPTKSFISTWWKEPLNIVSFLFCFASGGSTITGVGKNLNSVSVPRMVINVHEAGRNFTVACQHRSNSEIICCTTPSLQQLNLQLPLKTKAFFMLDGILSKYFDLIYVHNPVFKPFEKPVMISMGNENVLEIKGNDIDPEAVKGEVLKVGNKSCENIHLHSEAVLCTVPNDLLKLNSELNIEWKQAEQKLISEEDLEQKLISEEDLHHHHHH
T3 sequence (P08581 27-307 limits assumed, chain 2 of 2): as the sequence (P08581 27-307 limits assumed, chain 2 of 2) above
Method: as §1, §2

human MET on cells [5] = target: T1, human MET on cells; assay: cell-based or functional assay; remark: listed apart in the source
Wherever % Inhibition, HEK293/SRE-Luc Blocking Activity (HGF, 1 h mAb pre-bind) is given: test concentration or dose not given here.

T1 sequence (P08581 25-1390 limits assumed, form in doubt): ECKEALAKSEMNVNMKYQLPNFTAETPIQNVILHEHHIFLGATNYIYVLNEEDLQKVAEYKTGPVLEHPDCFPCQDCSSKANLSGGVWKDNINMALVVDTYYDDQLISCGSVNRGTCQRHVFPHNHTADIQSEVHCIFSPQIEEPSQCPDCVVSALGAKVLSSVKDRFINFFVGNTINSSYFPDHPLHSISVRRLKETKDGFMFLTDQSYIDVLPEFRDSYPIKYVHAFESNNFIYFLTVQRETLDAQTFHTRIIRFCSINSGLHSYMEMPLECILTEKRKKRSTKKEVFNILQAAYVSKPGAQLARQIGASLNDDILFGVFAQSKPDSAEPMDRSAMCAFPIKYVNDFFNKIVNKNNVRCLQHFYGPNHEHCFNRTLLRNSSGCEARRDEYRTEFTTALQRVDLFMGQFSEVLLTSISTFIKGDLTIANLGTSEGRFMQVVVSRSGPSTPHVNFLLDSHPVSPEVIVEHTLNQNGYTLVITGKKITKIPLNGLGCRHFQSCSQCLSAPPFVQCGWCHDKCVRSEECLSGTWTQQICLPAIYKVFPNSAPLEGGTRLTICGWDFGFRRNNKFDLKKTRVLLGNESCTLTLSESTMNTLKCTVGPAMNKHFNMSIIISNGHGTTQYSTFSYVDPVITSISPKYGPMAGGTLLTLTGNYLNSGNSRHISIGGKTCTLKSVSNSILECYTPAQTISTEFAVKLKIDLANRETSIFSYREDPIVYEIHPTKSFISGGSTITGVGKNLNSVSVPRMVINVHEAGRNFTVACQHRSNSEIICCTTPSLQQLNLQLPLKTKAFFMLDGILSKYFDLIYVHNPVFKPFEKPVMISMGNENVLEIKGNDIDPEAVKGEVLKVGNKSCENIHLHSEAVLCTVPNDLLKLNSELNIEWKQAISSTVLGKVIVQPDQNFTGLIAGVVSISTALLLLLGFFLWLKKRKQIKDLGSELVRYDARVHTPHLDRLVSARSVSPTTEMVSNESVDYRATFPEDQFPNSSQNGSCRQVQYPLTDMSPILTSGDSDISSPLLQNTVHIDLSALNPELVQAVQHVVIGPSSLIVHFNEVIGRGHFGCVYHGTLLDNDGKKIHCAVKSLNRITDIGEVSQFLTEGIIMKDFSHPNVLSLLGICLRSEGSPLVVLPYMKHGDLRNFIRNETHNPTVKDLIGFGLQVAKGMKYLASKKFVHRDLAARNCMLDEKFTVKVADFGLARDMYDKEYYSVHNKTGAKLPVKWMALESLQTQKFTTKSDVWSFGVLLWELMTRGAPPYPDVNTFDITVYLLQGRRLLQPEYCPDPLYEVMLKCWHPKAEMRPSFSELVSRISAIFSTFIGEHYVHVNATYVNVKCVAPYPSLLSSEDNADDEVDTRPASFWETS

B1: H1H13316P2 (antibody, IgG1, V domains shown)
VH: EVQLVESGGGLVQPGGSLRLSCAASGFTFRSYVMSWFRQAPGKGLEWVSGMSGSGGSTSYADSVKGRFTISRDNSKNTLYLLMNSLRTEDTAVYYCAKENGANWNYGYYGMDVWGQGTTVTVSS
VL: not shown
Human MET on cells [1]
  % Growth Inhibition, SNU5 cells: 30%
  IC50, SNU5 growth: 200 pM
Human MET on cells [2]
  % Inhibition, HEK293/SRE-Luc Blocking Activity (HGF, 1 h mAb pre-bind): 86%
  Fold Response, Ligand (HGF)-Independent HEK293/SRE-Luc Activation: 1.7 fold
  IC50, HEK293/SRE-Luc Blocking Activity (HGF, 1 h mAb pre-bind): 40 pM

B2: H4H13325P2 (antibody, human IgG4, V domains shown)
VH: EVQLLESGGGWVQPGGSLRLSCAASGFAFSNYAMNWVRQTPGKGLEWVSVISSSGGNTYYADSVKGRFAISRDNSRDTLHLQMNRLRVEDTAVYYCAKEIRPYYDLSYYYGMDVWGQGTTVTVSS
VL: not shown
Human MET on cells [1]
  % Growth Inhibition, SNU5 cells: 57%
  IC50, SNU5 growth: 44 pM
Human MET on cells [2]
  % Inhibition, HEK293/SRE-Luc Blocking Activity (HGF, 1 h mAb pre-bind): 69%
  EC50, Ligand (HGF)-Independent HEK293/SRE-Luc Activation: 190 pM
  Fold Response, Ligand (HGF)-Independent HEK293/SRE-Luc Activation: 4.3 fold
  IC50, HEK293/SRE-Luc Blocking Activity (HGF, 1 h mAb pre-bind): 13 pM

B3: H4H13313P2 (antibody, human IgG4, V domains shown)
VH: QVQLVESGGGVVQPGRSLRLSCSASGFSFSHFGMHWVRQVPGGGLEWVTSIWFDGSNRYYADSLKGRFTISRDNSKNTLYLEMNSLRAEDTAVYYCVREGILGTTNPYDVFDVWGQGTMVTVSS
VL: not shown
Human MET on cells [1]
  % Growth Inhibition, SNU5 cells: 34%
  IC50, SNU5 growth: 44 pM
Human MET on cells [2]
  % Inhibition, HEK293/SRE-Luc Blocking Activity (HGF, 1 h mAb pre-bind): 47%
  Fold Response, Ligand (HGF)-Independent HEK293/SRE-Luc Activation: 1.2 fold
  IC50, HEK293/SRE-Luc Blocking Activity (HGF, 1 h mAb pre-bind): 2300 pM

B4: H4H13300P2 (antibody, human IgG4, V domains shown)
VH: QVQLVESGGGVVQPGRSLRLSCAVSGFTFSSYGMHWVRQAPGKGLEWVANIWYDGTNDYYPYSVKGRFTISRDNSQNTLYLQMNSLRAEDTAVYYCAREDFINYRSFDYWGQGTLVTVSS
VL: not shown
notes: human IgG4 Fc (H4H), bivalent monospecific
[3]
  Kd: 1120 pM
  T½: 39.1 min
  koff: 0.000295 s⁻¹
  kon: 265000 M⁻¹ s⁻¹
[4]
  Kd: 72500 pM
  T½: 4.8 min
  koff: 0.00243 s⁻¹
  kon: 33500 M⁻¹ s⁻¹

B5: H4H13312P2-Maytansinoid A (antibody, IgG4, V domains shown)
VH: EVQLVESGGGLVQPGGSLRLSCAASGFIVTTNYMTWLRQAPGKGLEWVSLIYSSGHTYYADSVKGRFTISRHNSKNTLYLQMDSLRAEDTAVYYCASAFAADVFDIWGQGTMVTVSS
VL: not shown
modifications: SMCC-DM1 (Maytansinoid A) linker-payload conjugated to the antibody; residues not stated
Human MET on cells [5]
  IC50, 6-day in vitro cytotoxicity, A549: 18300 pM
  IC50, 6-day in vitro cytotoxicity, EBC-1: 390 pM
  IC50, 6-day in vitro cytotoxicity, Hs746t: 1590 pM
  Max % Kill, 6-day in vitro cytotoxicity, A549: 89%
  Max % Kill, 6-day in vitro cytotoxicity, EBC-1: 95%
  Max % Kill, 6-day in vitro cytotoxicity, Hs746t: 87%

B6: H4H14635D-Maytansinoid A (bispecific antibody, V domains shown)
VH 1: QVQLVESGGGVVQPGRSLRVSCVVSGFTFSSFGMHWVRQAPDKGLEWVAVIWYDGSNDYYSDSVKGRFTISRDNSKNTLFLQMNRLRAEDTAVYYCARANNWNRFDAFDLWGQGTMVTVSS
VH 2: EVQLVESGGGLVQPGGSLRLSCAASGFIVTTNYMTWLRQAPGKGLEWVSLIYSSGHTYYADSVKGRFTISRHNSKNTLYLQMDSLRAEDTAVYYCASAFAADVFDIWGQGTMVTVSS
VL: not shown
modifications: SMCC-DM1 (Maytansinoid A) linker-payload conjugated to the antibody; residues not stated
Human MET on cells [5]
  IC50, 6-day in vitro cytotoxicity, A549: 6780 pM
  IC50, 6-day in vitro cytotoxicity, EBC-1: 760 pM
  IC50, 6-day in vitro cytotoxicity, Hs746t: 1760 pM
  Max % Kill, 6-day in vitro cytotoxicity, A549: 91%
  Max % Kill, 6-day in vitro cytotoxicity, EBC-1: 96%
  Max % Kill, 6-day in vitro cytotoxicity, Hs746t: 86%

B7: H4H14635D-Maytansinoid B (bispecific antibody, V domains shown)
VH 1: QVQLVESGGGVVQPGRSLRVSCVVSGFTFSSFGMHWVRQAPDKGLEWVAVIWYDGSNDYYSDSVKGRFTISRDNSKNTLFLQMNRLRAEDTAVYYCARANNWNRFDAFDLWGQGTMVTVSS
VH 2: EVQLVESGGGLVQPGGSLRLSCAASGFIVTTNYMTWLRQAPGKGLEWVSLIYSSGHTYYADSVKGRFTISRHNSKNTLYLQMDSLRAEDTAVYYCASAFAADVFDIWGQGTMVTVSS
VL: not shown
modifications: Maytansinoid B (Compound 1, FIG. 20) linker-payload conjugated to the antibody; residues not stated
Human MET on cells [5]
  IC50, 6-day in vitro cytotoxicity, A549: 21400 pM
  IC50, 6-day in vitro cytotoxicity, EBC-1: 260 pM
  IC50, 6-day in vitro cytotoxicity, Hs746t: 2320 pM
  Max % Kill, 6-day in vitro cytotoxicity, A549: 72%
  Max % Kill, 6-day in vitro cytotoxicity, EBC-1: 96%
  Max % Kill, 6-day in vitro cytotoxicity, Hs746t: 89%

B8: H4H13312P2-Maytansinoid B (antibody, IgG4, V domains shown)
VH: EVQLVESGGGLVQPGGSLRLSCAASGFIVTTNYMTWLRQAPGKGLEWVSLIYSSGHTYYADSVKGRFTISRHNSKNTLYLQMDSLRAEDTAVYYCASAFAADVFDIWGQGTMVTVSS
VL: not shown
modifications: Maytansinoid B (Compound 1, FIG. 20) linker-payload conjugated to the antibody; residues not stated
Human MET on cells [5]
  IC50, 6-day in vitro cytotoxicity, A549: 27100 pM
  IC50, 6-day in vitro cytotoxicity, EBC-1: 70 pM
  IC50, 6-day in vitro cytotoxicity, Hs746t: 890 pM
  Max % Kill, 6-day in vitro cytotoxicity, A549: 85%
  Max % Kill, 6-day in vitro cytotoxicity, EBC-1: 95%
  Max % Kill, 6-day in vitro cytotoxicity, Hs746t: 90%
